Columns and labels:
[1] = molecular target: LP-48-FLAG fusion polypeptide (human LP-48 / IL-17C, mature, with the FLAG epitope fused to the native C-terminus) (human) (UniProt Q9P0M4); test: HUVEC incubated with 5 ug/ml LP-48, then control antibodies and 125I-protein A (radioimmunoassay)
[2] = molecular target: cell surface of HUVEC (human umbilical vein endothelial cells); LP-48 binding partner not identified (human); test: HUVEC incubated with 5 ug/ml LP-48; bound LP-48 detected with anti-LP-48 antibodies and 125I-protein A (radioimmunoassay)

125I-Protein A Bound (CPM) [1] [CPM] | 125I-Protein A Bound (CPM) [2] [CPM] | Molecule
317 |  | control antibodies to an unrelated protein (antibody)
 | 5630 | LP-48-FLAG fusion polypeptide (human LP-48 / IL-17C, mature, with the FLAG epitope fused to the native C-terminus) (ligand) HHDPSLRGHPHSHGTPHCYSAEELPLGQAPPHLLARGAKWGQALPVALVSSLEAASHRGRHERPSATTQCPVLRPEEVLEADTHQRSISPWRYRVDTDEDRYPQKLAFAECLCRGCIDARTGRETAALNSVRLLQSLLVLRRRPCSRDGSGLPTPGAFAFHTEFIHVPVGCTCVLPRSVDYKDDDDK
